Measured values as given in patent US20070207086A1 (published 2007).
Positions of bridges follow the written chain, without caps; N, C: chain ends. No end group written: not given here.

Experiments:
[1] = molecular target: T1, Recombinant purified HER2 receptor composed of the ectodomain of HER2 fused to the Fc of human IgG (human, UniProt P04626 23-652, limits assumed); test: Biacore SPR, immobilized HER2-Fc
T1 construct: extracellular domain; Provided by Dr. Che Law, Xcyte Therapeutics; amine-coupled to the Biacore chip (3500 RU); also called immobilized HER2; p185; not shown: Fc of human IgG
Protocol: (§1) Binding experiments were performed with the surface plasmon resonance based biosensor instrument Biacore 3000 (Biacore AB, Uppsala, Sweden) at 25° C. Recombinant purified HER2 receptor composed of the ectodomain of HER2 fused to the Fc of human IgG was provided by Dr. Che Law, Xcyte Therapeutics, Seattle, Wash. Immobilization of HER2 in the sensor surface was performed following the standard amine coupling procedure according to manufacturer's instructions. Briefly, 35 μL of a solution containing 0.2M N-ethyl-N-(dimethylaminopropyl) carbodiimide (EDC) and 0.05 M N-hydroxysuccinimide (NHS) were injected at a flow rate of 5 μL/min to activate carboxyl groups on the sensor chip surface. HER2 (40 ng/mL in 10 mM NaOAc buffer, pH 5.0) was flowed over the chip surface at a flow rate of 20 μL/min until the desired level bound protein was reached. Unreacted protein washed out and unreacted activated groups were blocked by the injection of 35 μL of 1 M ethanolamine at 5 μL/min. […] A reference surface was generated simultaneously under the same conditions but without HER2 injection and used as a blank to correct for instrument and buffer artifacts. Peptides were injected at variable concentrations at 20 μL/min flow rate and binding to the HER2 receptor immobilized on the chip was monitored in real time. Each sensorgram consists of an association phase (first 240s), reflecting binding of the injected peptide to the receptor, followed by a dissociation phase (300s), during which the running buffer is passed over the chip and the bound peptide is being washed off the receptor surface.

[2] = molecular target: T1, Recombinant purified HER2 receptor …; test: Biacore competition, AHNP preinjected 0-90 µM, then 1 nM rhumAb 4D5 (competitor) on immobilized HER2-Fc; initial rate of antibody binding
Protocol: as §1, with “Each sensorgram consists of an association phase (first 240s), reflecting binding of the injected peptide to the receptor, followed by a dissociation phase (300s), during which the running buffer is passed over the chip and the bound peptide is being washed off the receptor surface.” left out

[3] = molecular target: human HER2 receptor overexpressed on T6-17 cells (NIH3T3-derived) (human, UniProt P04626 23-1255); test: cell-based or functional assay
[4] = molecular target: T1, Recombinant purified HER2 receptor …; test: Biacore SPR, HER2 ectodomain-Fc immobilized, peptide as analyte
Protocol: as §1

B1: AHNP (anti-HER2/neu peptide mimetic), peptide 1, FCDGFYACYMDV-NH2 (peptide)
peptide: FCDGFYACYMDV-NH2
modifications: disulfide 2-8
notes: Designed from the CDR-H3 loop of rhumAb 4D5; also called anti-HER2 peptide
B1 was tested, and the “fold increase in binding affinity against peptide 2” value [1] was > 2 fold, the IC50 [2] was 3400 nM and the “% inhibition (inhibition of T6-17 cell proliferation in MTT assays, 1 µg/mL peptide)” value (from here on “% inhibition”) [3] was 35.5%. It also gave a Kd [4] of 320 nM, a koff [4] of 0.000453 s⁻¹ and a kon [4] of 1410 M⁻¹ s⁻¹.

B2: AHNP analogue 3, YCDGFYACYMDV-NH2 (peptide)
peptide: YCDGFYACYMDV-NH2
modifications: disulfide 2-8 (inferred)
notes: N-terminal Phe of AHNP replaced with Tyr; also called peptide 3
With B2 the “fold improvement in binding (Phe replaced with Tyr)” value [1] was > 2 fold, the “% inhibition” value [3] was 59.6% and the Kd [4] was 150 nM. The koff [4] was 0.000294 s⁻¹ and the kon [4] was 1960 M⁻¹ s⁻¹.

B3: AHNP analogue 6, FCDGFYACYKDV-OH (peptide)
peptide: FCDGFYACYKDV-OH
modifications: disulfide 2-8 (inferred)
notes: Met of peptide 2 replaced by Lys; also called peptide 6
B3 was tested, and the “fold decrease in affinity (Lys substituted for Met)” value [1] was 8.8 fold, the “% inhibition” value [3] was 8.4% and the Kd [4] was 5700 nM. The koff [4] was 0.00125 s⁻¹ and the kon [4] was 219 M⁻¹ s⁻¹.

B4: AHNP analogue 5, FCDGFYACYMDVK-NH2 (peptide)
peptide: FCDGFYACYMDVK-NH2
modifications: disulfide 2-8 (inferred)
notes: Lys added as C-terminal residue; also called peptide 5
B4 was tested, and the Kd [4] was 830 nM, the koff [4] was 0.000512 s⁻¹ and the kon [4] was 617 M⁻¹ s⁻¹.

B5: AHNP analogue 9, FCDGFYACYMDV-OH (linear, not cyclized) (peptide)
peptide: FCDGFYACYMDV-OH
modifications: cysteine pairing not given here
notes: also called peptide 9; linear analogue 9
In the case of B5, the “% inhibition” value [3] is reported as 12.8%, the Kd [4] is reported as 3560 nM and the koff [4] is reported as 0.00106 s⁻¹. For the same binder, the kon [4] was 298 M⁻¹ s⁻¹.

B6: AHNP analogue 7, GFCDGFYACYMDV-OH (peptide)
peptide: GFCDGFYACYMDV-OH
modifications: disulfide 3-9 (inferred)
notes: Gly placed at the N-terminus before Phe1; also called peptide 7
For B6, the Kd [4] was 730 nM, the koff [4] was 0.000808 s⁻¹ and the kon [4] was 1110 M⁻¹ s⁻¹.

In the case of FCDGFYACYMDV-OH (disulfide 2-8 (inferred), also called peptide 2) [AHNP analogue 2, FCDGFYACYMDV-OH (cyclic)], the “fold higher affinity than the linear analogue 9” value [1] is reported as > 5 fold, the “% inhibition” value [3] is reported as 22.3% and the Kd [4] is reported as 650 nM. It also gave a koff [4] of 0.000643 s⁻¹ and a kon [4] of 990 M⁻¹ s⁻¹.

B7: AHNP analogue 8, FCGDGFYACYMDV-OH (peptide)
peptide: FCGDGFYACYMDV-OH
modifications: disulfide 2-9 (inferred)
notes: First AHNP analogue designed; has one more turn Gly than peptide 2; also called peptide 8
In the case of B7, the “% inhibition” value [3] is reported as 18.4%, the Kd [4] is reported as 760 nM and the koff [4] is reported as 0.000701 s⁻¹. For the same binder, the kon [4] was 922 M⁻¹ s⁻¹.
